Results from patent US20030113743.

Experiments:
[1] = test system: synthetic peptide, residues 210-236 of hK2 (peptide #1 of FIG. 16)
[2] = test system: phK2^v217 (pro form of hK2 with valine at residue 217)
[3] = test system: peptide #3 of FIG. 16, amino acid residues -7 to +7 of phK2

Sequence of synthetic peptide, residues 210-236 of hK2 (peptide #1 of FIG. 16) (chain, as listed by the source): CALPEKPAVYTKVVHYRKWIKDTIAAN

Substance	peptide bond cleavage (RP-HPLC, N-terminal sequencing) [1]	conversion of pro to mature form (HIC-HPLC) [2]	conversion of pro to mature form (HIC-HPLC, N-terminal sequencing) [2]	peptide bond cleavage [3]
hK2^v217 (mature hK2 polypeptide having an alanine to valine substitution at amino acid position 217)	trypsin-like cleavage at a 2:1 ratio over the chymotrypsin-like cleavage	no difference in the ratios of the two hK2 forms was detected even after 6 hours		
phK2^v217 (pro form of hK2 with valine at residue 217)	showed no amidolytic activity			
prostate-specific antigen protein, hK3 (PSA)	PSA cleaved the Y-R bond primarily			
trypsin			complete conversion of phK2^v217 to hK2^v217	
wild type mature hK2 (prostate-specific glandular kallikrein protein)	its activity was exclusive for the trypsin-like site (R-K)	at a rate about 30× slower than trypsin		hK2 was able to cleave this peptide releasing the propeptide region
